B1: Tripartite motif-containing protein 6, residues 93 to 134; numbered along this chain, Q9C030 (parent)
chain: KAVLCADHGEKLQLFCQEDGKVICWLCERSQEHRGHHTFLVE

Variants of: B1
Experiment: abundance fitness (aPCA) (normalised: wild type 0, dead -1); higher = more abundant; growth selection in yeast, the domain comes from the species named
Settings: Homo sapiens

Abundance fitness, by site and new letter:
C24: E -0.627, L -1.1, V -1.19, T -0.664, G -1.16, I -0.753, R -1.02, D -0.822, Y -0.725, A -0.886, S -0.717, K -0.615, W -0.908, P -0.517, Q -0.748
C16: E -0.174, T -0.747, S -0.286, V -0.451, A -0.284, K -0.275, N -0.298, R -0.354, H -0.337, D -0.218, M -0.584, W -0.802, G -0.304
L14: M 0.071, N -0.153, E -0.195, C -0.198, A -0.186, F -0.064, G -0.082, I 0.001, K 0.065, T -0.087, P -0.151, V -0.154, R 0.106, H 0.122, W 0.218, D -0.087
K11: V -0.055, L -0.2, T -0.101, E 0.103, I -0.073, D 0.142, G -0.012, N -0.007, A 0.029, F -0.113, Q -0.3, W 0.339, S 0.155, R -0.042, P 0.315
I23: R -0.34, V -0.168, G -0.346, S -0.579, W -0.483, H -0.202, L -0.361, E -0.581, Q -0.842, N -0.091, A -0.463
L12: E -0.109, V -0.06, S 0.202, A 0.204, N 0.381, R 0.05, K -0.004, F -0.11, T -0.084, C 0.092, Q -0.008, I -0.231, M 0.195, P 0.151, G 0.117
K21: C -0.402, D -0.29, T -0.183, W -0.403, R 0.086, N -0.034, M -0.284, A -0.099, V 0.086, L -0.283, Y -0.035, F -0.403, Q -0.358, H -0.136, E 0.047
W25: E 0.047, A 0.118, I -0.024, D 0.067, R 0.173, P -0.008, L -0.025, M 0.135, S 0.068, H 0.12, V -0.033, G -0.01, F 0.023, N 0.11, T 0.094, Q 0.12, K 0.211, C 0.026
E18: R -0.302, W -0.537, Q -0.146, K -0.349, H -0.265, T -0.038, L -1, G -0.434, A -0.428, V -0.261, I -0.364
F15: E -0.126, P -0.209, S -0.212, R -0.112, L -0.222, D -0.329, G -0.087, M -0.029, N -0.418, Q 0.082, T -0.292, K 0.044, C 0.001, A -0.248
C5: T -0.954, D -0.807, N -0.922, W -1.06, Q -0.812, A -1.06, H -0.768, R -0.978, P -0.777, Y -0.602, V -0.839, M -0.769, L -0.999, E -0.615, G -0.664, K -0.789, F -0.871
G9: S -0.042, R -0.066, N 0.332, M -0.162, V -0.575, A -0.061, D -0.087, L -0.238, W -0.301, Q -0.032, E -0.179, H -0.287, T -0.407, C -0.237
Q17: G -0.341, K 0.248, S -0.316, Y -0.406, E 0.053, C -0.024, P -0.297, R -0.043, T -0.086, V -0.373, I 0.376, F -0.512, M -0.605, H -0.235, A -0.109, L -0.364, W -0.335
D7: Q 0.172, W -0.173, S 0.006, G -0.291, R -0.06, P -0.297, K -0.007, T 0.165, M 0.091, N -0.085, C 0.055, L 0.132, I -0.034, A 0.095, F -0.38, E 0.048
Q13: A 0.004, G -0.071, D -0.109, K 0.128, T 0.124, Y -0.217, V -0.148, R -0.135, I -0.086, M -0.274, P -0.256, E 0.142, N 0.21, S 0.058
D19: G -0.757, R -0.584, A -0.807, I -0.888, C 0.627, S -0.391, H -0.289
A6: P -0.056, D -0.11, L -0.215, F -0.158, K -0.011, C -0.156, S 0.055, E -0.244, R -0.035, W -0.48, N -0.306, H -0.43, I -0.321, Y -0.19, T -0.242, G -0.196, Q -0.087
L26: K 0.104, H -0.079, F -0.517, E 0.082, I -0.172, D -0.05, N -0.057, R 0.084, C -0.155, G -0.042, Q 0.259, M 0.474, P -0.186, A -0.029
E10: Y -0.031, H -0.442, A -0.185, C -0.163, S -0.319, R -0.019, D -0.075, G -0.165, Q -0.1, F -0.01, W -0.406
L4: F 0.141, N 0.224, E -0.126, C -0.189, R -0.082, G -0.175, Y 0.047, W -0.199, D -0.223, A -0.165, K -0.148, T -0.066, V 0.011, S -0.217, M 0.195, Q -0.272
H8: K -0.419, W -1, S -0.901, I -0.74, V -0.852, L -1.08, T -0.69, P -0.819, C -0.584, G -0.691, Q -0.275, A -0.706, F -1.09, E -0.518, N -0.807, R -0.77
V3: T 0.005, P -0.485, R -0.273, I -0.135, S -0.003, G 0.127, L -0.437, Q -0.306, W -0.353, M 0.141, Y -0.153, K 0.046, H -0.349
V22: W -0.554, A -0.047, N 0.093, G -0.019, E -0.127, Q -0.04, R 0.065
G20: Q -0.053, A -0.036, H -0.225, E 0.103, S -0.331, V -0.431, D 0.202, P -0.338, R -0.111, T -0.142, K -0.284, L 0.117

Reference: the Human Domainome abundance scans (Beltran et al. 2025)
